We go through two molecules from PMC6097307, “Development and characterization of an HPV18 detection kit using two novel HPV18 type-specific monoclonal antibodies” (Diagnostic Pathology, 2018).

Assay [1] concerns the target T1, HPV18 L1 virus-like particle (Human papillomavirus type 18, isolate …, UniProt P06794). Nature of the assay: cell-based or functional assay.
Assay [2] concerns the target T2, HPV31 L1 virus-like particle (Human papillomavirus type 31, isolate …, UniProt P17388).
T2 construct: major capsid protein L1 of human papillomavirus type 31, assembled into virus-like particles; Used native and denatured; also called HPV31 L1-VLP; HPV31VLP
Nature of the assay: ELISA; indirect ELISA as a2 but L1-VLPs denatured (0.2 M sodium carbonate pH 10.6, 10 mM DTT, 30 min, boiled 5 min) before coating; mAb 0.3 μg/ml. Particulars: both partners purified. On the technique in general: ELISA stands for enzyme-linked immunosorbent assay.

For assay [3], the target named is T3, HPV58 L1 virus-like particle (Human papillomavirus type 58, isolate …, UniProt P26535).
T3 construct: major capsid protein L1 of human papillomavirus type 58, assembled into virus-like particles; Used native and denatured; also called HPV58 L1-VLP
T3 sequence (P26535 whole entry): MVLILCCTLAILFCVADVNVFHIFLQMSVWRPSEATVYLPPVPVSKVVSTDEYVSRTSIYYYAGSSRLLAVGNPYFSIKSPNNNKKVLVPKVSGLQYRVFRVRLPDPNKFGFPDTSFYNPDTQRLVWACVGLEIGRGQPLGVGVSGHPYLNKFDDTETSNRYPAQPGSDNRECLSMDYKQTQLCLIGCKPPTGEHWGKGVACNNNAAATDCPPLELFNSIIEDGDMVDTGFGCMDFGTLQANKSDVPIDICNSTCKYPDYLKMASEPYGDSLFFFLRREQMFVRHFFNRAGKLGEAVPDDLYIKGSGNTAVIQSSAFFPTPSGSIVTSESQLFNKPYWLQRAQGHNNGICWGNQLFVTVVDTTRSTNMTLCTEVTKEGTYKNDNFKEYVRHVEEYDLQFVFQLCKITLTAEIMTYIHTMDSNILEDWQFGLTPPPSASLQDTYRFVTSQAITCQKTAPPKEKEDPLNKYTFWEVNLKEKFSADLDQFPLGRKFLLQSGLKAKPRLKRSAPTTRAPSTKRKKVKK
The description is as above. The following applies: both partners purified.

Assay [4] addresses T4, HPV45 L1 virus-like particle (Human papillomavirus type 45, isolate …, UniProt P36741).
T4 construct: major capsid protein L1 of human papillomavirus type 45, assembled into virus-like particles; Used native and denatured; also called HPV45 L1-VLP
Described as above. The following applies: both partners purified.

The target in assay [5] is T5, HPV33 L1 virus-like particle (Human papillomavirus type 33, isolate …, UniProt P06416).
T5 construct: major capsid protein L1 of human papillomavirus type 33, assembled into virus-like particles; Used native and denatured; also called HPV33 L1-VLP
T5 sequence (P06416 whole entry): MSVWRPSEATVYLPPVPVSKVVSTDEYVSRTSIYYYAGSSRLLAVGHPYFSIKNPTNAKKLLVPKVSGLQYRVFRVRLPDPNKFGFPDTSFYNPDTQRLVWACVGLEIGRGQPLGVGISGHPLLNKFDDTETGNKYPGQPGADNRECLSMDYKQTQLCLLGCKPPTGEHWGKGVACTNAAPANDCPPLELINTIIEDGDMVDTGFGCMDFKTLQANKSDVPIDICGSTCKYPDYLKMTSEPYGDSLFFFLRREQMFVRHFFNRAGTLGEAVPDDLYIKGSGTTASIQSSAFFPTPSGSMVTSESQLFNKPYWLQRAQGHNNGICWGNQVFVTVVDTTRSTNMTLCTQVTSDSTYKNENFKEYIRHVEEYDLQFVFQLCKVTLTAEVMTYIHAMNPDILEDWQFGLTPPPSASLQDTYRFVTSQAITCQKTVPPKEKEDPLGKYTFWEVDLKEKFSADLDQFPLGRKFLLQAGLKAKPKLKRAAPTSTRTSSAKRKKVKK
Described as above. The following applies: both partners purified.

Assay [6] addresses T6, HPV16 L1 virus-like particle (Human papillomavirus type 16, isolate …, UniProt P03101).
T6 construct: major capsid protein L1 of human papillomavirus type 16, assembled into virus-like particles; Used native and denatured; also called HPV16 L1-VLP
The description is as above. The following applies: both partners purified.

Assay [7] concerns the target T7, HPV11 L1 virus-like particle (Human papillomavirus type 11, isolate …, UniProt P04012).
T7 construct: major capsid protein L1 of human papillomavirus type 11, assembled into virus-like particles; Used native and denatured; also called HPV11 L1-VLP
Nature of the assay: ELISA; indirect ELISA; native L1-VLPs of nine HPV types coated at 200 ng/well overnight at 4 °C; mAb 0.3 μg/ml, 1 h, room temperature; HRP goat anti-mouse IgG. The following applies: both partners purified.

The target of assay [8] is T1, HPV18 L1 virus-like particle. Kind of assay: SPR; BIACORE3000; L1-VLPs coupled to the chip (40 μg/ml, acetate pH 5.5, 4000 RU); antibodies at seven concentrations 0.3125 to 20 nM in PBS; binding 60 s, dissociation 500 s. Particulars: both partners purified.
Assay [9] has as its target T2, HPV31 L1 virus-like particle. Kind of assay: ELISA; indirect ELISA; native L1-VLPs of nine HPV types coated at 200 ng/well overnight at 4 °C; mAb 0.3 μg/ml, 1 h, room temperature; HRP goat anti-mouse IgG. The following applies: both partners purified.
In assay [10] the target is T3, HPV58 L1 virus-like particle. The assay is described as above. Particulars: both partners purified.
Assay [11] has as its target T4, HPV45 L1 virus-like particle. The description is as above. Particulars: both partners purified.
Assay [12] deals with T5, HPV33 L1 virus-like particle. The assay is described as above. The following applies: both partners purified.
Assay [13] has as its target T6, HPV16 L1 virus-like particle. The assay is described as above. The following applies: both partners purified.

T1 sequence (P06794 whole entry): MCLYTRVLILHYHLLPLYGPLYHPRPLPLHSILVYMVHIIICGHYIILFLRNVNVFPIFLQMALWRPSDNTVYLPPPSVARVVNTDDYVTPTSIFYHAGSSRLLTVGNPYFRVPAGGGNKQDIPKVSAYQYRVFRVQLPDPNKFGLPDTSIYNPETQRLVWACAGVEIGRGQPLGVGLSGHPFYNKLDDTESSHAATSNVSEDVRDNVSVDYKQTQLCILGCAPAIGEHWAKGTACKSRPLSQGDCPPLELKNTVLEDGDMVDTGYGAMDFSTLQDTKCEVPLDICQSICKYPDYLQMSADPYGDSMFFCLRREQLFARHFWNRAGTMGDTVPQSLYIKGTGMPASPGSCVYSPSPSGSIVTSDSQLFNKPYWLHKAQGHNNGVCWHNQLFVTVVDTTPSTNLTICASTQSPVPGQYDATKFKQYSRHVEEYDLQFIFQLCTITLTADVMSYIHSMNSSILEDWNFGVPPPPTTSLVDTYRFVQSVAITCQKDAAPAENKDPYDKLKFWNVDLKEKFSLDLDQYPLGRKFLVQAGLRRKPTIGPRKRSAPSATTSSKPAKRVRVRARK
T2 sequence (P17388 whole entry): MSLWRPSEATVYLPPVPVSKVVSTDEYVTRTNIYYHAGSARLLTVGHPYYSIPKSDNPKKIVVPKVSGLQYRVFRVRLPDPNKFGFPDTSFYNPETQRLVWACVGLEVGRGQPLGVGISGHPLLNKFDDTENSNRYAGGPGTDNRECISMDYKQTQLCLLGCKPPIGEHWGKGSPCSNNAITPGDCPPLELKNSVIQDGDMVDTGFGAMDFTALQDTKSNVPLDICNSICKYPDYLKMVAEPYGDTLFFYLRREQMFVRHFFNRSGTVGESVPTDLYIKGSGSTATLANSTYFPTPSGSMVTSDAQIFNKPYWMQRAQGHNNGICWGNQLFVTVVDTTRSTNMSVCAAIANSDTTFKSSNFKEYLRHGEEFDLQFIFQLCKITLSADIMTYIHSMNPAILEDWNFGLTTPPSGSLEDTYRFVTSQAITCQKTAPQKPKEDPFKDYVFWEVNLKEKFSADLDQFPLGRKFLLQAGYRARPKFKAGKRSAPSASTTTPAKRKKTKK
T7 sequence (P04012 whole entry): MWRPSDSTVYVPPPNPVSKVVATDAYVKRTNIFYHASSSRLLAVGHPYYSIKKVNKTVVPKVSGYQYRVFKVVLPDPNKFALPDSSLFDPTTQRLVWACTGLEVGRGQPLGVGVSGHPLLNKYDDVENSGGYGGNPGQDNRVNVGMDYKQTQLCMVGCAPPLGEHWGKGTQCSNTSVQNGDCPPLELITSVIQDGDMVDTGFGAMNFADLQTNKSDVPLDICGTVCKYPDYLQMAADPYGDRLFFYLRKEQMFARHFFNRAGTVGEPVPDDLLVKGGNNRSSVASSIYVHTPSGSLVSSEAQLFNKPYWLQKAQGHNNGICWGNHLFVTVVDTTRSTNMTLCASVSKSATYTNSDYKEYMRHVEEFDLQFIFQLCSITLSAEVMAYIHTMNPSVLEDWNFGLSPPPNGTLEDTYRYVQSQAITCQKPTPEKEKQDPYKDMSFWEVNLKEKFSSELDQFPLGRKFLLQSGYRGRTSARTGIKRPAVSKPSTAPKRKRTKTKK
T4 sequence (P36741 whole entry): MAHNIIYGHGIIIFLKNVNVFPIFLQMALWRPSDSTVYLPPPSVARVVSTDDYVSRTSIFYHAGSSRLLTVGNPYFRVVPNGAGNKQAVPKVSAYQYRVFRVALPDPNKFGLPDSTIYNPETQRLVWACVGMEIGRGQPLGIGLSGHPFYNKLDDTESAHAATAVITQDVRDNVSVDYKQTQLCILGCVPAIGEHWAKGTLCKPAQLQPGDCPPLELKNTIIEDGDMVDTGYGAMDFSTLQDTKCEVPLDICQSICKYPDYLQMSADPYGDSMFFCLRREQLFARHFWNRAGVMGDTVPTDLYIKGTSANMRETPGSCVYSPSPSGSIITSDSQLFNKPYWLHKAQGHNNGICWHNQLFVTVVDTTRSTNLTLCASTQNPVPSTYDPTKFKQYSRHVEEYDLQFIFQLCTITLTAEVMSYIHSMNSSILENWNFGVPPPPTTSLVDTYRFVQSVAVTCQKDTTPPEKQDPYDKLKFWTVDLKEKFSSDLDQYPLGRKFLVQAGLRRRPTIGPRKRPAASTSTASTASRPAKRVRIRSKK
T6 sequence (P03101 whole entry): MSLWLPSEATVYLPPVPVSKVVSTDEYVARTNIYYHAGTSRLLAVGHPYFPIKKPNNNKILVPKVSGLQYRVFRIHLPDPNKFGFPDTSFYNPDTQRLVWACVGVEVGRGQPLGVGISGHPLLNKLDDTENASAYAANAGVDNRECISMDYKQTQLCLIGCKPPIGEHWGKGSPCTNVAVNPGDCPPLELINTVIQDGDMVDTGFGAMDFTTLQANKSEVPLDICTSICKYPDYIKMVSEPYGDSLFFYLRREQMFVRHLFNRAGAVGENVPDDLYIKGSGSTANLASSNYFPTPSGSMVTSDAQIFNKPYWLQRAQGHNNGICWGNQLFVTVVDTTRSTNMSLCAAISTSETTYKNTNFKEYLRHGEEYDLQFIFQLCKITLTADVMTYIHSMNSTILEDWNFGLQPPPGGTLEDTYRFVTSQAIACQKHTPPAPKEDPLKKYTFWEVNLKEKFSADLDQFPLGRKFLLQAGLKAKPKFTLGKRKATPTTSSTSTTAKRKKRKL

B1: monoclonal antibody 1B1 against HPV18 L1-VLP (antibody, V domains shown)
VH: VQLQQSGGDLVKPGGSLKLSCAASGFTFSSYGMSWVRQTPDKRLEWVATISGGGSYTYYPDSVKGRFTISRDNAKNTLYLQMSSLKSEDTAMYYCSRHDSYGNYAAWFAYWGQGTTVTVS
VL: DIQLTQSPALMAASPGEKVTITCSVSSSISSSNLHWYQQKSETSPKPWIYGTSNLASGVPVRFSGSGSGTSYSLTISSMEAEDAATYYCQQWSSYPFTFGSGTKLEI
notes: IgG1; unconjugated in indirect ELISA and SPR; also called mAb 1B1; 1B1-HRP; source: mouse hybridoma (BALB/c spleen cells fused with SP2/0), ascites, purified on Protein G; copies: 2 + 2
The Kd is the free concentration of one partner at which half of the binding sites on the other are occupied at equilibrium, for simple one-to-one binding. By koff is commonly meant the first-order rate constant of dissociation. A low value points to a long-lived complex. In general, kon refers to the rate constant with which the complex forms. Higher therefore signals faster complex formation. Turning to B1, the “IC50 of neutralisation of HPV18 pseudovirus (PsV18) infection of 293FT cells, fluorescence by flow cytometry” value in assay [1] worked out at 0.039 µg/mL. Also, the binding result in [2], in assay [3], in [4], in [5], in assay [6] and in assay [7] was “no binding (tested: 0.3 μg/ml mAb)” each time. Besides, the affinity in assay [8], expressed as Kd, was 2.06 nM. Besides, the koff in [8] worked out at 0.00192 s⁻¹. For the same molecule, the kon in assay [8] was determined as 931000 M⁻¹ s⁻¹.

B2: monoclonal antibody 4C2 against HPV18 L1-VLP (antibody, V domains shown)
VH: VKLQESGAELMKPGASVKISCKATGYTFRSYWIEWVKQRPGHGLEWIGEILPGSGITNYNEKFKGKATFTADTSSNTAYMQLSSLTSEDSAVYYCARHWDGNAMDYWGQGTTVTVSS
VL: DIQLTQSPLSLPVSLGDQASISCRSSQSIVHSNGNTYLEWYLQKPGQSPKLLIYKVSNRFSGVPDRFSGSGSGTDFTLKISRVEAEDLGVYYCFQGSHVPLTFGAGTKLEI
notes: IgG1; Coating antibody of the sandwich ELISA kit; also called mAb 4C2; source: mouse hybridoma (BALB/c spleen cells fused with SP2/0), ascites, purified on Protein G; copies: 2 + 2
With B2, in [1], the “IC50 of neutralisation of HPV18 pseudovirus (PsV18) infection of 293FT cells, fluorescence by flow cytometry” value is 10 µg/mL. Moreover, the binding result in assay [7], in [9], in assay [10], in [11], in assay [12] and in [13] was “no binding (tested: 0.3 μg/ml mAb)” throughout. For the same molecule, in assay [8], the Kd is 7.45 nM. The koff in assay [8] was 0.0178 s⁻¹. The molecule further gave a kon in assay [8] of 2.38e+06 M⁻¹ s⁻¹.
